PMC8228714, “Structural Constraint of Osteopontin Facilitates Efficient Binding to CD44” (Biomolecules, 2021)
Values belong to the molecule of their own block, whether it stands above or below them.

What was measured:
[1] = molecular target: truncated version of CD44v (MyBiosource); test: ELISA; receptor (CD44v or integrin) plated on a high-binding 96-well plate, GST-OPN in solution 2 h at room temperature; 10 mM HEPES pH 7.4, 150 mM NaCl, 2 mM MnCl2, 0.05% Tween 20; detection with HRP-anti-GST; constants from double-reciprocal plots
[2] = molecular target: Recombinant extracellular domain of CD44 (aa21–606), His- and SUMO-tags (Lifespan Biosciences); test: as above
[3] = molecular target: extracellular portion of integrin αVβ3 (R&D Systems) (UniProt P06756); test: as above
[4] = molecular target: T1, extracellular portion of integrin α9β1 (R&D Systems) (UniProt Q13797 30-977; P05556 21-728); test: SPR; BIACORE 2000, CM5 chip; about 8000 RU of GST-OPN, CD44v or integrin α9β1 immobilised by amine coupling, BSA control flow cell; one protein in the flow, 50 μL/min, 120 s; 10 mM HEPES, 150 mM NaCl, pH 7.4, 0.05% Tween 20, 0.4 mM MnCl2, 25 °C; settings: both partners purified
T1 construct: also called α9β1 extracellular domain; source: bought: R&D Systems
T1 sequence (Q13797 30-977, chain 1 of 2): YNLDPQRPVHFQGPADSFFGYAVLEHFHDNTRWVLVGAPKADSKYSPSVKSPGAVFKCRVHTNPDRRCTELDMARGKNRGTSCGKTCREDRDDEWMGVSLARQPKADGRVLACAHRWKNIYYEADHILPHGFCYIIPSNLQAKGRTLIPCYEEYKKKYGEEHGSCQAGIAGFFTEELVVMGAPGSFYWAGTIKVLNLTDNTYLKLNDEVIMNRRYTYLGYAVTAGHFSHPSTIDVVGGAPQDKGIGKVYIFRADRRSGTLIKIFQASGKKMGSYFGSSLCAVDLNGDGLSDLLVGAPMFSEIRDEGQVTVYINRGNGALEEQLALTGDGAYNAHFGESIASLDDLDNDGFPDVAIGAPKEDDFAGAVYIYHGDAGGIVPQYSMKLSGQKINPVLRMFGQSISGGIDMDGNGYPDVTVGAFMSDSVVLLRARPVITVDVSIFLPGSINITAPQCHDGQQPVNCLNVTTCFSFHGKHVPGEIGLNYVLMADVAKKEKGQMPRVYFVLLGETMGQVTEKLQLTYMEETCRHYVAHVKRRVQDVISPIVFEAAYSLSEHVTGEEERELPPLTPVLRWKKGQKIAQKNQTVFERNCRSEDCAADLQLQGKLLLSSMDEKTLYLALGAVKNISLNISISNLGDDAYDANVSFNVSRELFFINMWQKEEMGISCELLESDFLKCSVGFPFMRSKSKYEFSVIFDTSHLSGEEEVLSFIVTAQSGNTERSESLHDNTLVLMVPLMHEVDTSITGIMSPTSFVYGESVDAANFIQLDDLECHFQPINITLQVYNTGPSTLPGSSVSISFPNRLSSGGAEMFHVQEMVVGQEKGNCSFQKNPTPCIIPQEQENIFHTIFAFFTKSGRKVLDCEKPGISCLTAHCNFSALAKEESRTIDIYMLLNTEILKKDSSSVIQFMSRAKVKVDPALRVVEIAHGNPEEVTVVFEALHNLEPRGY
T1 sequence (P05556 21-728, chain 2 of 2): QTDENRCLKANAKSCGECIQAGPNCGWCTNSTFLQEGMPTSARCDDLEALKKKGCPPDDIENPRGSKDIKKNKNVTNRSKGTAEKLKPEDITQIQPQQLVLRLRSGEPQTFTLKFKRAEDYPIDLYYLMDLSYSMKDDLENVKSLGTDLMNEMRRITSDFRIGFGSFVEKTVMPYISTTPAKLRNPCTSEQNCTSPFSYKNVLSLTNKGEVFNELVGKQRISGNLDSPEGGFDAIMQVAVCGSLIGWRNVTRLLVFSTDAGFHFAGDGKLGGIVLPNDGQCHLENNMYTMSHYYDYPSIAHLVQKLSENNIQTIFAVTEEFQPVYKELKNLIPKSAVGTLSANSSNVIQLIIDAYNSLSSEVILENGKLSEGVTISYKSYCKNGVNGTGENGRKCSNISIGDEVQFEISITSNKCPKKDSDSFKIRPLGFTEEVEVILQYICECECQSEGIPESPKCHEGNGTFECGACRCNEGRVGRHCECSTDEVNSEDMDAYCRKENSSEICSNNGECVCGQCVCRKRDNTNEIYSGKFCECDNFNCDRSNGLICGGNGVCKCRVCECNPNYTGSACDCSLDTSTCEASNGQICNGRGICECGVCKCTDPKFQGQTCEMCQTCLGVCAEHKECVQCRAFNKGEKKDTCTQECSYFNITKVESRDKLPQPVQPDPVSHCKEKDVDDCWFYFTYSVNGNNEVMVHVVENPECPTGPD

Sequence of truncated version of CD44v (MyBiosource) (P16070 21-742): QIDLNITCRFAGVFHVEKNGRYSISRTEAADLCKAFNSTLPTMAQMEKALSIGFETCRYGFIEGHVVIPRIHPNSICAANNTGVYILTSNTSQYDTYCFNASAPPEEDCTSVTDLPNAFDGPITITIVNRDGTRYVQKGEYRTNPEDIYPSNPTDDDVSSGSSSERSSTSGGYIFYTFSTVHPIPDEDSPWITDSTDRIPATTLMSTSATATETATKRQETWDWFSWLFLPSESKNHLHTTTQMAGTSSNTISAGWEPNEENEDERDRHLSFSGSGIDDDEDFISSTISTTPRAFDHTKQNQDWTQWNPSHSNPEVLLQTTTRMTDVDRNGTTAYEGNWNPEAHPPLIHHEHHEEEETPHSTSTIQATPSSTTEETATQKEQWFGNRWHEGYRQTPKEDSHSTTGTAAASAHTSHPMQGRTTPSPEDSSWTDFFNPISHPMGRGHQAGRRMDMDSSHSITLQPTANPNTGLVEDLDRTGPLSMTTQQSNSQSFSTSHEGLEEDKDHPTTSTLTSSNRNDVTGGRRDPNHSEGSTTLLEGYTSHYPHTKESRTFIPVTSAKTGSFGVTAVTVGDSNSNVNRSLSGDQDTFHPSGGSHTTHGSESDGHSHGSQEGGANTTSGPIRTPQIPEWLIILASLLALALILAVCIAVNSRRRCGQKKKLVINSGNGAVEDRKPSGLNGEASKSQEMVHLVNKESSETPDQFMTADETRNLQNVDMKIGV

Molecule: Bacterial recombinant GST-OPNa (after deletion of the signal sequence) (from UniProt P10451-1 17-314) (ligand)
fold lower affinity than for LSBio CD44v [1]: 8 fold
half-maximal binding concentration (CD44 titrated 0–1000 ng, OPN 125 ng) [2]: 95.5 ng
half-maximal binding concentration (CD44 titrated 0–1000 ng, OPN 250 ng) [2]: 60.9 ng
half-maximal binding concentration (CD44 titrated 0–1000 ng, OPN 500 ng) [2]: 107 ng
half-maximal binding concentration (CD44 titrated 0–1000 ng, OPN 1000 ng) [2]: 151 ng
half-maximal binding concentration (CD44 titrated 0–1000 ng, OPN 2000 ng) [2]: 123 ng
half-maximal binding concentration (CD44 titrated 0–1000 ng, OPN 4000 ng) [2]: 138 ng
half-maximal binding concentration (OPN titrated 125–500 ng, CD44 65 ng) [2]: 0.77 ng
half-maximal binding concentration (OPN titrated 125–500 ng, CD44 125 ng) [2]: 8.09 ng
half-maximal binding concentration (OPN titrated 125–500 ng, CD44 250 ng) [2]: 40.5 ng
half-maximal binding concentration (OPN titrated 125–500 ng, CD44 500 ng) [2]: 50.8 ng
half-maximal binding concentration (OPN titrated 125–500 ng, CD44 1000 ng) [2]: 60.3 ng

half-maximal binding concentration (OPN titrated 7.8–500 ng, aVb3 200 ng, taken from the row above) [3]: 502 ng
Molecule: GST-OPNb (ligand)

half-maximal binding concentration (OPN titrated 7.8–500 ng, aVb3 200 ng, taken from the rows above) [3]: 314 ng
Molecule: GST-OPNc (from UniProt P10451-3 17-287) (ligand)

binding result [4]: binds
B1: extracellular portion of integrin αVβ3 (R&D Systems) (receptor)
chain 1: FNLDVDSPAEYSGPEGSYFGFAVDFFVPSASSRMFLLVGAPKANTTQPGIVEGGQVLKCDWSSTRRCQPIEFDATGNRDYAKDDPLEFKSHQWFGASVRSKQDKILACAPLYHWRTEMKQEREPVGTCFLQDGTKTVEYAPCRSQDIDADGQGFCQGGFSIDFTKADRVLLGGPGSFYWQGQLISDQVAEIVSKYDPNVYSIKYNNQLATRTAQAIFDDSYLGYSVAVGDFNGDGIDDFVSGVPRAARTLGMVYIYDGKNMSSLYNFTGEQMAAYFGFSVAATDINGDDYADVFIGAPLFMDRGSDGKLQEVGQVSVSLQRASGDFQTTKLNGFEVFARFGSAIAPLGDLDQDGFNDIAIAAPYGGEDKKGIVYIFNGRSTGLNAVPSQILEGQWAARSMPPSFGYSMKGATDIDKNGYPDLIVGAFGVDRAILYRARPVITVNAGLEVYPSILNQDNKTCSLPGTALKVSCFNVRFCLKADGKGVLPRKLNFQVELLLDKLKQKGAIRRALFLYSRSPSHSKNMTISRGGLMQCEELIAYLRDESEFRDKLTPITIFMEYRLDYRTAADTTGLQPILNQFTPANISRQAHILLDCGEDNVCKPKLEVSVDSDQKKIYIGDDNPLTLIVKAQNQGEGAYEAELIVSIPLQADFIGVVRNNEALARLSCAFKTENQTRQVVCDLGNPMKAGTQLLAGLRFSVHQQSEMDTSVKFDLQIQSSNLFDKVSPVVSHKVDLAVLAAVEIRGVSSPDHVFLPIPNWEHKENPETEEDVGPVVQHIYELRNNGPSSFSKAMLHLQWPYKYNNNTLLYILHYDIDGPMNCTSDMEINPLRIKISSLQTTEKNDTVAGQGERDHLITKRDLALSEGDIHTLGCGVAQCLKIVCQVGRLDRGKSAILYVKSLLWTETFMNKENQNHSYSLKSSASFNVIEFPYKNLPIEDITNSTLVTTNVTWGIQPAPMPV
chain 2: GPNICTTRGVSSCQQCLAVSPMCAWCSDEALPLGSPRCDLKENLLKDNCAPESIEFPVSEARVLEDRPLSDKGSGDSSQVTQVSPQRIALRLRPDDSKNFSIQVRQVEDYPVDIYYLMDLSYSMKDDLWSIQNLGTKLATQMRKLTSNLRIGFGAFVDKPVSPYMYISPPEALENPCYDMKTTCLPMFGYKHVLTLTDQVTRFNEEVKKQSVSRNRDAPEGGFDAIMQATVCDEKIGWRNDASHLLVFTTDAKTHIALDGRLAGIVQPNDGQCHVGSDNHYSASTTMDYPSLGLMTEKLSQKNINLIFAVTENVVNLYQNYSELIPGTTVGVLSMDSSNVLQLIVDAYGKIRSKVELEVRDLPEELSLSFNATCLNNEVIPGLKSCMGLKIGDTVSFSIEAKVRGCPQEKEKSFTIKPVGFKDSLIVQVTFDCDCACQAQAEPNSHRCNNGNGTFECGVCRCGPGWLGSQCECSEEDYRPSQQDECSPREGQPVCSQRGECLCGQCVCHSSDFGKITGKYCECDDFSCVRYKGEMCSGHGQCSCGDCLCDSDWTGYYCNCTTRTDTCMSSNGLLCSGRGKCECGSCVCIQPGSYGDTCEKCPTCPDACTFKKECVECKKFDRGALHDENTCNRYCRDEIESVKELKDTGKDAVNCTYKNEDDCVVRFQYYEDSSGKSILYVVEEPECPKGPD
notes: also called aVb3; source: bought: R&D Systems
